Response data for 1 substance are collected here from paper PMC10899662, “TopBP1 utilises a bipartite GINS binding mode to support genome replication” (Nature Communications, 2024).

This assay concerns the target GINS (HIS-(3C)-Sld5, Psf1, Psf2, Psf3) for structural and fluorescence polarisation studies, Q9BRT9;Q14691;Q9Y248;Q9BRX5. Put plainly: fluorescence polarisation. The settings on record: point at the highest concentration, 150 µM; parent: est. 180; read off a plot.

As to “fluorescently labelled GINI-core peptide (Ala478-Gly497), WT L490P; L491P”, the response came to 3 mP.
